Tests used:
[1] = target: AAV-amyloid-453-587 (AAV-2; human) (UniProt P03135)
[2] = target: purified αVβ3 integrin (CHEMICON) (UniProt P06756)

| Substance | fold higher affinity against the I-587-insertion mutant (AAV-amyloid-587) [1] [fold] | fold increase of binding activity against RGD4C 453 [2] [fold] |
| --- | --- | --- |
| anti-β-amyloid mAb 6E10 (CHEMICON) (antibody) | > 2 | – |
| AAV2 RGD4C 453 A2 (from UniProt P03135 1-453; P03135 454-735) (other; other documents disagree on this pair) | – | 50 |

Source: US20100203083A1
